Test results from article doi:10.1101/183848.

Target: ATP binding cassette protein E1 (ABCE1), endogenous in 293T/17 cells (human (endogenous in 293T/17)) (UniProt P61221)
Assay: proximity ligation

Substance: FIV Gag, wild type, expressed from the FIV pro- env- provirus (natural protein)
- Gag-ABCE1 PLA spots per cell (PLA spots per cell): 34.9
